From IntAct's records for PubMed 11473260

B1: SAGA complex/transcription factor TFIID complex subunit TAF12 (Saccharomyces cerevisiae), Q03761 (parent)
chain: MSSNPENSGVNANNNTGTGNADAITGAQQNMVLQPRQLQEMAAKFRTLLTEARNVGETTPRGKELMFQAAKIKQVYDALTLNRRRQQAAQAYNNTSNSNSSNPASIPTENVPNSSQQQQQQQQQTRNNSNKFSNMIKQVLTPEENQEYEKLWQNFQVRHTSIKEKETYLKQNIDRLEQEINKQTDEGPKQQLQEKKIELLNDWKVLKIEYTKLFNNYQNSKKTFYVECARHNPALHKFLQESTQQQRVQQQRVQQQQQQQQQQQQQQQQQQQQQQQRQGQNQRKISSSNSTEIPSVTGPDALKSQQQQQNTITATNNPRGNVNTSQTEQSKAKVTNVNATASMLNNISSSKSAIFKQTEPAIPISENISTKTPAPVAYRSNRPTITGGSAMNASALNTPATTKLPPYEMDTQRVMSKRKLRELVKTVGIDEGDGETVIDGDVEELLLDLADDFVTNVTAFSCRLAKHRKSDNLEARDIQLHLERNWNIRIPGYSADEIRSTRKWNPSQNYNQKLQSITSDKVAAAKNNGNNVASLNTKK
partner: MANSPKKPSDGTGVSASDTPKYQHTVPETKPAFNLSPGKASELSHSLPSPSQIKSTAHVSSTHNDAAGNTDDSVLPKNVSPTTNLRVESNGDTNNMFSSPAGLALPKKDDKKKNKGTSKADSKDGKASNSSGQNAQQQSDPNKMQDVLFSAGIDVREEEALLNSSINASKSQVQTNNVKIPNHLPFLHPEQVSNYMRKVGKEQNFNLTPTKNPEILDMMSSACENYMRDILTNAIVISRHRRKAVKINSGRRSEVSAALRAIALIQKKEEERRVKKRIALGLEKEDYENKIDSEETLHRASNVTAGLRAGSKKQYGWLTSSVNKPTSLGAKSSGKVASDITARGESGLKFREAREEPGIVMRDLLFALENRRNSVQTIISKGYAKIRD

Variants of: B1
Details: with taf4_yeast TAF4, P50105

Row | effect of a mutation on the interaction | Variant
1 | disrupting interaction | L446A
2 | disrupting interaction | L449A
